Earlier results in patent US20230303640A1, “EXENDIN-4 PEPTIDE ANALOGS” (TXP Pharma AG, priority 2020, published 2023).
pEC50: −log10 of the molar value.

Biological target: T1, human GLP-1 receptor (Homo sapiens, UniProt P43220)
T1 construct: expressed in transfected cells; host or cells: CHO-K1
Conditions: FIG. 3; data included and detailed in PCT/IB2015/000553 (WO/2015/162485)

T1 sequence (P43220 24-463): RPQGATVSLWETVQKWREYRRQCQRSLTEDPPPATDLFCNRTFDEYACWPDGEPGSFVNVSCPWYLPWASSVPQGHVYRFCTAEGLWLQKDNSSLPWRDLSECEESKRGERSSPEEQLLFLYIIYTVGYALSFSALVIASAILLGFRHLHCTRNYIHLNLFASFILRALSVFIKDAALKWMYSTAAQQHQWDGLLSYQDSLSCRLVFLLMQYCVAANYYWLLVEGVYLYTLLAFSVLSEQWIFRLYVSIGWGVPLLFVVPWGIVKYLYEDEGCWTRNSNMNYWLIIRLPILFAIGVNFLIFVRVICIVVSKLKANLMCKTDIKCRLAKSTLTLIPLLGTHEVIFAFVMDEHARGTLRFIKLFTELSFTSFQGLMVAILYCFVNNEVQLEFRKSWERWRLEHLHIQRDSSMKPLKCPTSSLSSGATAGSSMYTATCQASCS

- pEC50: 10.40
Substance: Ac-His-Gly-Glu-Gly-Thr-Phe-Thr-Ser-Asp-Val-Ser-Ser-Tyr-Leu-Glu-Gly-Gln-Ala-Ala-Lys-Glu-Phe-Ile-Ala-Trp-Leu-Val-Lys-Gly-Arg-Gly-(Lys-Lys-Ac)Lys-NH2 (HGEGTFTSDVSSYLEGQAAKEFIAWLVKGRG; N-acetyl; C-terminal (Lys-Lys-Ac)Lys amide; printed: His-Gly-Glu-Gly-Thr-Phe-Thr-Ser-Asp-Val-Ser-Ser-Tyr-Leu-Glu-Gly-Gln-Ala-Ala-Lys-Glu-Phe-Ile-Ala-Trp-Leu-Val-Lys-Gly-Arg-Gly-) [Analogue 3, GLP-1 analogue with C-terminal BAP, from WO/2015/162485]
